Results reported in patent US20210290727A1 (UNIVERSITY OF MARYLAND BALTIMORE, published 2021).

Assays:
FLAG-tagged TSC1 = biological target: T1, FLAG-tagged TSC1 (UniProt Q92574 1-1164); experiment: NanoSPD (nanoTRAP) filopodia co-accumulation in COS-7 cells
T1 construct: also called pRK7-FLAG-TSC1; not shown: FLAG tag
T1 sequence (looked up): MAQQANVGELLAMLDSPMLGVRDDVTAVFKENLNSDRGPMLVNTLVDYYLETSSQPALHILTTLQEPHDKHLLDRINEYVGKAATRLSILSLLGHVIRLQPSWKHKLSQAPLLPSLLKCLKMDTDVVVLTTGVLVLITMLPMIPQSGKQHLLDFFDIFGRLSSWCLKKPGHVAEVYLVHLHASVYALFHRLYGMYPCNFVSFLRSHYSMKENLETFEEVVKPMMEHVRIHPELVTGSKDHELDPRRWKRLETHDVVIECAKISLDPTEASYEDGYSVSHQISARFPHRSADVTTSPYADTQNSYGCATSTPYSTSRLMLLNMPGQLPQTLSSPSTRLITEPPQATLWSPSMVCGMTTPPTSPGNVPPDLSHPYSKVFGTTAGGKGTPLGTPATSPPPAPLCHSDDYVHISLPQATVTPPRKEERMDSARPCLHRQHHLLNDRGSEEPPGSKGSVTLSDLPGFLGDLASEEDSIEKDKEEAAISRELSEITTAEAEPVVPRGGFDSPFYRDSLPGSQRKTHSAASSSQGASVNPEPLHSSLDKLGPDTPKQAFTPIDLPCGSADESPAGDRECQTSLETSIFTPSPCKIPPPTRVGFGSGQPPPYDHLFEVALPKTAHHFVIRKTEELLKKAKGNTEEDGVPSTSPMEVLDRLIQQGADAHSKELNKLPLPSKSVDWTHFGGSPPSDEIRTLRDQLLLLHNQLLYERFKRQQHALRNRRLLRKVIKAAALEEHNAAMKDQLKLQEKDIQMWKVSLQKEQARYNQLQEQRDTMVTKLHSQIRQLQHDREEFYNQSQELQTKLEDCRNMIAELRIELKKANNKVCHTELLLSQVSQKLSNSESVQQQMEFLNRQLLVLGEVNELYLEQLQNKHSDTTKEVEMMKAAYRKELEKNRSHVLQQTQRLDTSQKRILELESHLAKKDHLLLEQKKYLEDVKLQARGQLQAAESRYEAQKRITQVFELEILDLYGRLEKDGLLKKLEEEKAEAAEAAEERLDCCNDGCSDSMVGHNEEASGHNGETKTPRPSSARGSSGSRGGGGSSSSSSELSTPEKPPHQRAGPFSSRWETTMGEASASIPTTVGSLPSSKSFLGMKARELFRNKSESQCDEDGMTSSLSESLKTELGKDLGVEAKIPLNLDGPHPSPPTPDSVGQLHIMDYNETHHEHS

FLAG-tagged TSC2 = biological target: T2, FLAG-tagged TSC2 (UniProt P49815 1-1807, limits assumed); experiment: as above
T2 construct: also called pRK7-FLAG-TSC2; not shown: FLAG tag
T2 sequence (P49815 whole entry): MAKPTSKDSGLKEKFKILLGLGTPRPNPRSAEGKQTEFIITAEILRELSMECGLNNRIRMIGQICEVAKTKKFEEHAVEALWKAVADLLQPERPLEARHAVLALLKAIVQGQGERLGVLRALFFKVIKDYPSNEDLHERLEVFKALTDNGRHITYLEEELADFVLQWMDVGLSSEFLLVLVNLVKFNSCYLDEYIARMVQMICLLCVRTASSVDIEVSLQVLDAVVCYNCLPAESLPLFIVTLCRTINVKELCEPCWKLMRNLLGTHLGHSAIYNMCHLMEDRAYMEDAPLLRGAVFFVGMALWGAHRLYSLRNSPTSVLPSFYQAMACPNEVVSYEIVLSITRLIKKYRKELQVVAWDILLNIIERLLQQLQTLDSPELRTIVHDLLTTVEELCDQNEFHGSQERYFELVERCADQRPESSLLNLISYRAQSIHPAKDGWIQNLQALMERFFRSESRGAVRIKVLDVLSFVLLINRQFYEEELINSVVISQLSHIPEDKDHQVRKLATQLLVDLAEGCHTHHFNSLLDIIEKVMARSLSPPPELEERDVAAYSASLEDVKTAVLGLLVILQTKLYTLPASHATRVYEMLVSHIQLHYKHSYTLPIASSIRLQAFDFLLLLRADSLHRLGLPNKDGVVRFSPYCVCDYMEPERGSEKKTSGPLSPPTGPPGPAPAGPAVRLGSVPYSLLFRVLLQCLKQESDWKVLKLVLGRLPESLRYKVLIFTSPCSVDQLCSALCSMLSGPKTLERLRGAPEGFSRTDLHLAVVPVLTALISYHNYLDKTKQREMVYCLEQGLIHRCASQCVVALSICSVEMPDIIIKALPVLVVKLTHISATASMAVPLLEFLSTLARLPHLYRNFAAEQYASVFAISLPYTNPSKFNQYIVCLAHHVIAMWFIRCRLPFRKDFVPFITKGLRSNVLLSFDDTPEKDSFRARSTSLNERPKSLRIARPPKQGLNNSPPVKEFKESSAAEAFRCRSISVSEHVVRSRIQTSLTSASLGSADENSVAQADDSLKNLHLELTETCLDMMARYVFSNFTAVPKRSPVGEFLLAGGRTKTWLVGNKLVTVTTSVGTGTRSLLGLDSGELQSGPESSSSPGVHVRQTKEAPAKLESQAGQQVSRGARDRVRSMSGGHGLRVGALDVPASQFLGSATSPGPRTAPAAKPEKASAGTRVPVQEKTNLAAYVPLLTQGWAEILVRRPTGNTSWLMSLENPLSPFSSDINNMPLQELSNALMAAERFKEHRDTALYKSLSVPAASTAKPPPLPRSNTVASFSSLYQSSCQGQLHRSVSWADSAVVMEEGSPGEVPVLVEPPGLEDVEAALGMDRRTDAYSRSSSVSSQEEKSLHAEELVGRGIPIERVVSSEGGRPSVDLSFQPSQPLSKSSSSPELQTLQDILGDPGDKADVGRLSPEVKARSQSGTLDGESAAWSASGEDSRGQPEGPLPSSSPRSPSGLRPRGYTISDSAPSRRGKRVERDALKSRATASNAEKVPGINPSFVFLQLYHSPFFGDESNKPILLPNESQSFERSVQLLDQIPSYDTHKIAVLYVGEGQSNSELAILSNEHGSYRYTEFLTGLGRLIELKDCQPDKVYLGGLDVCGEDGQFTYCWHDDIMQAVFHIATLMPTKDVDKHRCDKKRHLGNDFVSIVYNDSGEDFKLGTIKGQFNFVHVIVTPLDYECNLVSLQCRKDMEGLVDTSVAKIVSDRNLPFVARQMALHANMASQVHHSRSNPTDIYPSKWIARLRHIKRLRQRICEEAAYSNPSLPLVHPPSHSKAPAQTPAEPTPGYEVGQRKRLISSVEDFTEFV

B1: CIB2-eGFP (other)
chain: MGNKQTIFTEEQLDNYQDCTFFNKKDILKLHSRFYELAPNLVPMDYRKSPIVHVPMSLIIQMPELRENPFKERIVAAFSEDGEGNLTFNDFVDMFSVLCESAPRELKANYAFKIYDFNTDNFICKEDLELTLARLTKSELDEEEVVLVCDKVIEEADLDGDGKLGFADFEDMIAKAPDFLSTFHIRI
notes: Expressed in COS-7 cells as bait of the NanoSPD (nanoTRAP) assay; also called hCIB2-eGFP; GFP-hCIB2; not shown: eGFP tag
B1: no binding (FLAG-tagged TSC1); no binding (FLAG-tagged TSC2).
